Measured values taken from patent US10500249B2, “Compositions and methods for preventing or treating diseases, conditions, or processes characterized by aberrant fibroblast proliferation and extracellular matrix deposition” (MOERAE MATRIX, INC., priority 2014, dated 2019).

Key:
Assay in all cases: Kinase Profiling Assay
Assay type in all cases: biochemical
Conditions in all cases: 100 μM
BRK (h) = BRK (h) (Homo sapiens, UniProt Q13882)
Summary of the method: (§1)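 Each kinase activity was measured in duplicate. Phosphorylation of a positively charged substrate with radiolabeled phosphate from ATP was captured on a negatively charged filter, counted by scintillation and expressed relative to a 100% activity control. MK2 inhibitory peptides were screened for specificity across 266 human kinases.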

EphB3 (h) = biological target: T1, EphB3 (h) (Homo sapiens, UniProt P54753)
T1 sequence (P54753 34-998): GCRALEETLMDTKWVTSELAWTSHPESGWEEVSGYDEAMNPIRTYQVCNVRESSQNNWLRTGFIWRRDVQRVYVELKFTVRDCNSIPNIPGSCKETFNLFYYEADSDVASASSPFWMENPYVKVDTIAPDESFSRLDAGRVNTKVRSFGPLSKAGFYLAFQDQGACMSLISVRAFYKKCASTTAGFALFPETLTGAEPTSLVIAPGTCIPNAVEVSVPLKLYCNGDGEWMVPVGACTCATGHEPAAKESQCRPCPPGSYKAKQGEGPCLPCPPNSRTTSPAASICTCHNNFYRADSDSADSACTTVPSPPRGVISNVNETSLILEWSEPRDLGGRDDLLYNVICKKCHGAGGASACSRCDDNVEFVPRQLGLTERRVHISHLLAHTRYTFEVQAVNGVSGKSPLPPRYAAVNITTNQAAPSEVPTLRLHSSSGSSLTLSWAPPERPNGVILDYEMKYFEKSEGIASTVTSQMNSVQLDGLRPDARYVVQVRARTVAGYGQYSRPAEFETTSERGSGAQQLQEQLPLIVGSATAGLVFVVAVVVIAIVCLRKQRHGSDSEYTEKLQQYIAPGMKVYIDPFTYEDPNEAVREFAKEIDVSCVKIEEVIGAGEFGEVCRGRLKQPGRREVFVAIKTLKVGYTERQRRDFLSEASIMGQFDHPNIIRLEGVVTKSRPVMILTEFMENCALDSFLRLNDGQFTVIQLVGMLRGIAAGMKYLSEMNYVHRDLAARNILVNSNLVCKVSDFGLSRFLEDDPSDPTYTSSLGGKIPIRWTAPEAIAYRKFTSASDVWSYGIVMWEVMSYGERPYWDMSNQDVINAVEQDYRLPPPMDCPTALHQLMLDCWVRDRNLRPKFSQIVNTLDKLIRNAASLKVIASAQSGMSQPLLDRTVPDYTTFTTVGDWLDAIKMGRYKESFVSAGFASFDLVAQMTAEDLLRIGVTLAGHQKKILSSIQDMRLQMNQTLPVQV
Summary of the method: as §1

MAPKAP-K2 (h) = MAPKAP-K2 (h) (Homo sapiens, UniProt P49137)
Sequence of MAPKAP-K2 (h) (P49137 whole entry): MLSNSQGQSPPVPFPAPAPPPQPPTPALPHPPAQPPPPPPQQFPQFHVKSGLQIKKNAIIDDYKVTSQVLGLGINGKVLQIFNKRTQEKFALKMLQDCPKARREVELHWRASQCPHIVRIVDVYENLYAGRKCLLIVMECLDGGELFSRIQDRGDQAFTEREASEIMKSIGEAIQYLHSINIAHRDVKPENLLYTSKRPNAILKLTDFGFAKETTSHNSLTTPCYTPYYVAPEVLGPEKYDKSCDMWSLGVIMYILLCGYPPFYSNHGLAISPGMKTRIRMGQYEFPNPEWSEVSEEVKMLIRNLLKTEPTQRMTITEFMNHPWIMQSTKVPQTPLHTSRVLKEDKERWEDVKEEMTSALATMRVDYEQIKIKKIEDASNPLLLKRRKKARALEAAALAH
Summary of the method: as §1

Fms(Y969C) (h) = Fms(Y969C) (h) (Homo sapiens, UniProt P07333, Y969C)
Summary of the method: as §1

TAO3 (h) = biological target: T2, TAO3 (h) (Homo sapiens, UniProt Q9H2K8)
T2 sequence (Q9H2K8 1-898): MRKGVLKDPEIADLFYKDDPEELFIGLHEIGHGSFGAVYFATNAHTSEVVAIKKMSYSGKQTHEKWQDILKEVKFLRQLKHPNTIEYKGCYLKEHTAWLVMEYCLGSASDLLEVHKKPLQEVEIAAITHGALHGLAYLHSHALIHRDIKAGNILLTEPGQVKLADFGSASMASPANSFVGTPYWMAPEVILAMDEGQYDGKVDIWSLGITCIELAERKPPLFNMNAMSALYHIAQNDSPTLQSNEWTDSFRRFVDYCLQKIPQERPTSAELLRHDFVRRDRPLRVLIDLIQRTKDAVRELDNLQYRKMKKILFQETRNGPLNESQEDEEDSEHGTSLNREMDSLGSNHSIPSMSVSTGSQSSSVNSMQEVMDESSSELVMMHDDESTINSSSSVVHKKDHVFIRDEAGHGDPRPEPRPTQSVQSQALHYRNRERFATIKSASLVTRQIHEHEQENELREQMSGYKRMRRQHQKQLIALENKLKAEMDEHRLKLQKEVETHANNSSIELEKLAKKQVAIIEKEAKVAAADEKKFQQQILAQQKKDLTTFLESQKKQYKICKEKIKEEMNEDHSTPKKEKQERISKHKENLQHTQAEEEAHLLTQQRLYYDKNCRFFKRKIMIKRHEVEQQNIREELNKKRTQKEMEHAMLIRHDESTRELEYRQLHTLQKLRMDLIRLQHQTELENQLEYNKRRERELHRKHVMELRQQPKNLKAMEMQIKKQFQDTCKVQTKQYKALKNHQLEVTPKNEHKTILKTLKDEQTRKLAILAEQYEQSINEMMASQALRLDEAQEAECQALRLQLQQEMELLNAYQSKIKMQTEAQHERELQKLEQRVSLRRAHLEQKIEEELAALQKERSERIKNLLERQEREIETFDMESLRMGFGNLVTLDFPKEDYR
Summary of the method: as §1

KDR (h) = KDR (h) (Homo sapiens, UniProt P35968)
Sequence of KDR (h) (P35968 20-1356): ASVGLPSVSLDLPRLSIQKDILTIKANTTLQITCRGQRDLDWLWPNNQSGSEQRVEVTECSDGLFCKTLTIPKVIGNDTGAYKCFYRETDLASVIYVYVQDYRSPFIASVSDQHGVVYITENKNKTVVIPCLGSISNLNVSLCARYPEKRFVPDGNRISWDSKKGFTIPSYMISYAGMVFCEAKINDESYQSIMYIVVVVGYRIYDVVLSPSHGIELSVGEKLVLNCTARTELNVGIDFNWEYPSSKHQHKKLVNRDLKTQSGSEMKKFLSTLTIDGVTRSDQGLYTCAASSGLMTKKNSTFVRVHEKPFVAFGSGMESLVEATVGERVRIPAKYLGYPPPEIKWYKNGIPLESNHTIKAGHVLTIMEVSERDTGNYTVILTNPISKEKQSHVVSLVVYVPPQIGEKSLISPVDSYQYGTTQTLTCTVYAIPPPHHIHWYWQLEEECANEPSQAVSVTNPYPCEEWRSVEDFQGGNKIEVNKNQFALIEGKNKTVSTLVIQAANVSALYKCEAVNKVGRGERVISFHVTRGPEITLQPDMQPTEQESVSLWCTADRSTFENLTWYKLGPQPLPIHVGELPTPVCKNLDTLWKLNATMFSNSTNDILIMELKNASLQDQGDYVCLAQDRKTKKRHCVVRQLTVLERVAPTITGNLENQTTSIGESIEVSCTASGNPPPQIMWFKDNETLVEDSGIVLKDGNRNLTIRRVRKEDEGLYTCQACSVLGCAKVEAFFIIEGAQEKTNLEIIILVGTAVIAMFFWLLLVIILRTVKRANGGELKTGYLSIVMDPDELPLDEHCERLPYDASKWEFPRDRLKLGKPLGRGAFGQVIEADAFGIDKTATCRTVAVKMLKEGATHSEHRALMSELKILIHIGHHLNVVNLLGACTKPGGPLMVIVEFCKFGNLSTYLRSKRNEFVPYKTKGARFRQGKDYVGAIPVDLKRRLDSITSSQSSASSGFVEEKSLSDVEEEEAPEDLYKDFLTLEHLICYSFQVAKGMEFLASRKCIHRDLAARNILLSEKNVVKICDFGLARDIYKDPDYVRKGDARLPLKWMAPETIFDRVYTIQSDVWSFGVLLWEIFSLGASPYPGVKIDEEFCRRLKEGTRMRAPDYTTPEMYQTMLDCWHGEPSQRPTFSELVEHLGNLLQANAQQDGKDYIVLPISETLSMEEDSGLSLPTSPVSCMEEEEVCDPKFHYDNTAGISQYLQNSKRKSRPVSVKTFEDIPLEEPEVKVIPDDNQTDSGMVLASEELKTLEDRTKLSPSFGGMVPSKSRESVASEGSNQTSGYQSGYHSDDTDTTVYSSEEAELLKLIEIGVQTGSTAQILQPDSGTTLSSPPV
Summary of the method: as §1

TrkA (h) = TrkA (h) (Homo sapiens, UniProt P04629)
Sequence of TrkA (h) (P04629 33-796): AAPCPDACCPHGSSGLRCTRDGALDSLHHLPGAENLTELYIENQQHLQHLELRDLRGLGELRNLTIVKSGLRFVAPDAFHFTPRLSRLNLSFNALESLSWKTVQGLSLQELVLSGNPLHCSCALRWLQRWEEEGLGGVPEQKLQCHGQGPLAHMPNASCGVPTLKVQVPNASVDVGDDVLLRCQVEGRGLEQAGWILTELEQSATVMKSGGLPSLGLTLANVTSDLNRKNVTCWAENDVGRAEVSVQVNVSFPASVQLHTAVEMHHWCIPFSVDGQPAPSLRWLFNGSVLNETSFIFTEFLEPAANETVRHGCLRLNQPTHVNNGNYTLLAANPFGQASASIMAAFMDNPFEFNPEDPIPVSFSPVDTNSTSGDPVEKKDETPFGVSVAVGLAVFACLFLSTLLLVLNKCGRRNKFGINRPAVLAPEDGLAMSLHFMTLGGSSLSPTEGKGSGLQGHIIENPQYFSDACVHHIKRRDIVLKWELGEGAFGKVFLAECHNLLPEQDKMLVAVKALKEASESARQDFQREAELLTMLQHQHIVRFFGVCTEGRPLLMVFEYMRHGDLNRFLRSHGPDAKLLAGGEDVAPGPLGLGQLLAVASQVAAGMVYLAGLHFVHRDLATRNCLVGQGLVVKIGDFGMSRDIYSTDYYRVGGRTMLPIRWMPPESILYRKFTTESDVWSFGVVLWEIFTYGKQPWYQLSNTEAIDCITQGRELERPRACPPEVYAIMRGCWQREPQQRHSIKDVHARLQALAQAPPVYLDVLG
Summary of the method: as §1

PDGFRβ (h) = biological target: T3, PDGFRβ (h) (Homo sapiens, UniProt P09619)
T3 construct: purchased Millipore
T3 sequence (P09619 33-1106): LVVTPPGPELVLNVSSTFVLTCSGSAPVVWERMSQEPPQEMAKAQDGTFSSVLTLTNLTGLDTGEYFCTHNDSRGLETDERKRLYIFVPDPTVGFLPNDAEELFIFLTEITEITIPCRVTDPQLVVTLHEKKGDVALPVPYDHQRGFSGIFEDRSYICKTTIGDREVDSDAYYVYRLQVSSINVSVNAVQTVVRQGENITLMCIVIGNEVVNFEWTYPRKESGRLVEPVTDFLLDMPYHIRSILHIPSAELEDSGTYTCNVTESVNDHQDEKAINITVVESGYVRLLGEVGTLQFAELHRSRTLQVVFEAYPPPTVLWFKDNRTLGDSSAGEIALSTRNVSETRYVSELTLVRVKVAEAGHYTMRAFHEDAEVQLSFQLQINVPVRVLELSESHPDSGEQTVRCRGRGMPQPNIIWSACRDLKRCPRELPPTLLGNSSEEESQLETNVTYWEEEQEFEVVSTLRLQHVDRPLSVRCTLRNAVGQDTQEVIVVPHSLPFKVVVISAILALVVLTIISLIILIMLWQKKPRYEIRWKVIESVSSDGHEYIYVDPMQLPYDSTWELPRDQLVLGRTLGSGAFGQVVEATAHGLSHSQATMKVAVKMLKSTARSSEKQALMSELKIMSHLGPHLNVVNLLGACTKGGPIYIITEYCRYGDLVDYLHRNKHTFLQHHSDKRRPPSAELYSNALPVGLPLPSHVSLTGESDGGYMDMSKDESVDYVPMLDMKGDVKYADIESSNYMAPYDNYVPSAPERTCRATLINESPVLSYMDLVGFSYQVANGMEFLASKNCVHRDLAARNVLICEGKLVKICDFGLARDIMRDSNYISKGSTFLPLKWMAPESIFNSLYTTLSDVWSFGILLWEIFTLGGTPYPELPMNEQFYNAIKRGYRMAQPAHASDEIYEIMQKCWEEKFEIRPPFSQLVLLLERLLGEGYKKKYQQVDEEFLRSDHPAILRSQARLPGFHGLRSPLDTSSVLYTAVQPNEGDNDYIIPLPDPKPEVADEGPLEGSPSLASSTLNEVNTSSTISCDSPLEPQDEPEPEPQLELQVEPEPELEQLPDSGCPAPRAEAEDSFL
Summary of the method: as §1

Flt4 (h) = Flt4 (h) (Homo sapiens, UniProt P35916)
Summary of the method: as §1

PrKX (h) = biological target: T4, PrKX (h) (Homo sapiens, UniProt P51817)
T4 sequence (P51817 1-358): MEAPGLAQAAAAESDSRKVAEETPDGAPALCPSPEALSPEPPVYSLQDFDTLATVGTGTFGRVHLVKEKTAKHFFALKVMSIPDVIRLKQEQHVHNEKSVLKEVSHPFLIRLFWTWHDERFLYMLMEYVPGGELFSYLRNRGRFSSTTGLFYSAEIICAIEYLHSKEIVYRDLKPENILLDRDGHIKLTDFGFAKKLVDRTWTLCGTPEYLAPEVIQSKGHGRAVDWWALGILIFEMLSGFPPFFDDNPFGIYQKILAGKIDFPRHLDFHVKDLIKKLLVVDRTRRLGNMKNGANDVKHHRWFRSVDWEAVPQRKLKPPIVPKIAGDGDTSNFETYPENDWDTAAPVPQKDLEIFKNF
Summary of the method: as §1

Sequence of BRK (h) (Q13882 whole entry): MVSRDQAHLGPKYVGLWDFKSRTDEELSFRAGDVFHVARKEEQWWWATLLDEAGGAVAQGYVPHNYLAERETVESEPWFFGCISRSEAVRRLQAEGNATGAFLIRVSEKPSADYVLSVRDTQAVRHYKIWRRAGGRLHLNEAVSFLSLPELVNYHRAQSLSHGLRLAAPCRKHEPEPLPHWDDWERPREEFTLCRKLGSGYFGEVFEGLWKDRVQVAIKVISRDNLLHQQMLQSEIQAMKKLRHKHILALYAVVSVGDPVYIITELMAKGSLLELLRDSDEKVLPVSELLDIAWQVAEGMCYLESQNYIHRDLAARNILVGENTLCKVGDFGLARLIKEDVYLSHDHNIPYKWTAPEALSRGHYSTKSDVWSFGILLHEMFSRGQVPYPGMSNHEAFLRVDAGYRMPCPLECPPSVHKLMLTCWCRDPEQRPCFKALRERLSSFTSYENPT

Sequence	% activity (BRK (h)) [%]	% activity (EphB3 (h)) [%]	% activity (MAPKAP-K2 (h)) [%]	% activity (Fms(Y969C) (h)) [%]	% activity (TAO3 (h)) [%]	% activity (KDR (h)) [%]	% activity (TrkA (h)) [%]	% activity (PDGFRβ (h)) [%]	% activity (Flt4 (h)) [%]	% activity (PrKX (h)) [%]
FAKLAARLYRKALARQLGVAA [MMI-0300]	35	62	5	72	77	101	25	81	83	61
HRRIKAWLKKIKALARQLGVAA (Mammalian) [MMI-0500]	41	79	9	–	12	15	24	40	73	57
YARAAARQARAKALNRQLGVA (Mammalian) [MMI-0200]	127	128	35	88	–	110	–	137	–	–
KAFAKLAARLYRKALARQLGVAA [MMI-0400]	18	47	5	91	67	94	17	53	89	76
